This test has as its target ospg_shifl ospG (UniProt Q99PZ6).

Chain of ospg_shifl ospG (Q99PZ6 whole entry): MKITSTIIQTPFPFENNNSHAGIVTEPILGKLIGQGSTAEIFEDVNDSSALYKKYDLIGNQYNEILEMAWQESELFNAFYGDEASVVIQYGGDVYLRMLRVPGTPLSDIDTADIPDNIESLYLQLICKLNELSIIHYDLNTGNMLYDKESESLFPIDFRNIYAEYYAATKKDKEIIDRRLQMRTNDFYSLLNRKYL
Chain of Ubiquitin-conjugating enzyme E2 D3 (Homo sapiens), P61077 F62A (P61077 whole entry F62A): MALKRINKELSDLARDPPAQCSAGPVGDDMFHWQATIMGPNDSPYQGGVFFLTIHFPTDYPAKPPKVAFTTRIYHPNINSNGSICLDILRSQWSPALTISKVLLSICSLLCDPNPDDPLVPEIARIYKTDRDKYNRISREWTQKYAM

Turning to “Ubiquitin-conjugating enzyme E2 D3 (Homo sapiens), P61077 F62A”, the “effect of a mutation on the interaction” value was “disrupting interaction”.

These data come from IntAct's records for PubMed 24446487.
